US20220025010A1 (ANTAG THERAPEUTICS, published 2022)

Target: T1, human GIP receptor (human, UniProt P48546 22-466)
T1 sequence (looked up): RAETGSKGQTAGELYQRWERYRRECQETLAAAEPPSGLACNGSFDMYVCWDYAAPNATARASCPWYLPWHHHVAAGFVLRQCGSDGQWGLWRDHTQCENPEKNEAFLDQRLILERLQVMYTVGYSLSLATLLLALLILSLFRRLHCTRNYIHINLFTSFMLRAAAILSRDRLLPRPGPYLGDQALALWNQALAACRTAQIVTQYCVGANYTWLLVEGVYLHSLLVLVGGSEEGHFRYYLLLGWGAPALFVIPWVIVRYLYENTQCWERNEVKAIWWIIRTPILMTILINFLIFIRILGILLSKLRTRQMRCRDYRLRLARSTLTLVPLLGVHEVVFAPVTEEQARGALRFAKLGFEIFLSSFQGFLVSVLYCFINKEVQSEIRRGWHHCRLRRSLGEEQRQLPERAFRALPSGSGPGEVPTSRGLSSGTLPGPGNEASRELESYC
Assay: cell-based or functional assay

Binder	CisBio cAMP agonism % Efficacy [%]	CisBio cAMP antagonism % inhib [%]	CisBio cAMP antagonism IC50 [nM]	CisBio cAMP antagonism pIC50	DiscoveRx cAMP agonism Emax	DiscoveRx cAMP antagonism IC50 [nM]	DiscoveRx cAMP antagonism log IC50 [log M]	DiscoveRx cAMP antagonism % inhib [%]
GGTFISDYSIAMDRIKQQDFVNWLLAQR (HELM PEPTIDE1{G.G.T.F.I.S.D.Y.S.I.A.M.D.R.I.K.Q.Q.D.F.V.N.W.L.L.A.Q.R}|PEPTIDE2{[O=C(O)CCCCCCCCCCCCCCC(=O)[*:2]].[gGlu]}$PEPTIDE1,PEPTIDE2,16:R3-2:R2$$$V2.0; N-terminus assumed; SMILES CC[C@H](C)[C@H](NC(=O)[C@H](CO)NC(=O)[C@H](Cc1ccc(O)cc1)NC(=O)[C@H](CC(=O)O)NC(=O)[C@H](CO)NC(=O)[C@@H](NC(=O)[C@H](Cc1ccccc1)NC(=O)[C@@H](NC(=O)CNC(=O)CN)[C@@H](C)O)[C@@H](C)CC)C(=O)N[C@@H](C)C(=O)N[C@@H](CCSC)C(=O)N[C@@H](CC(=O)O)C(=O)N[C@@H](CCCNC(=N)N)C(=O)N[C@H](C(=O)N[C@@H](CCCCNC(=O)CC[C@H](NC(=O)CCCCCCCCCCCCCCC(=O)O)C(=O)O)C(=O)N[C@@H](CCC(N)=O)C(=O)N[C@@H](CCC(N)=O)C(=O)N[C@@H](CC(=O)O)C(=O)N[C@@H](Cc1ccccc1)C(=O)N[C@H](C(=O)N[C@@H](CC(N)=O)C(=O)N[C@@H](Cc1c[nH]c2ccccc12)C(=O)N[C@@H](CC(C)C)C(=O)N[C@@H](CC(C)C)C(=O)N[C@@H](C)C(=O)N[C@@H](CCC(N)=O)C(=O)N[C@@H](CCCNC(=N)N)C(=O)O)C(C)C)[C@@H](C)CC) [AT263]	0	69	21	6.7	8	74	-7.1	–
GGTFISDYSIAMDRIKQQDFVNWLLAQR (HELM PEPTIDE1{G.G.T.F.I.S.D.Y.S.I.A.M.D.R.I.K.Q.Q.D.F.V.N.W.L.L.A.Q.R.[am]}|PEPTIDE2{[O=C(O)CCCCCCCCCCCCCCC(=O)[*:2]].[gGlu].[O=C(COCCOCCN[*:1])[*:2]]}$PEPTIDE1,PEPTIDE2,16:R3-3:R2$$$V2.0; N-terminus assumed; SMILES CC[C@H](C)[C@H](NC(=O)[C@H](CO)NC(=O)[C@H](Cc1ccc(O)cc1)NC(=O)[C@H](CC(=O)O)NC(=O)[C@H](CO)NC(=O)[C@@H](NC(=O)[C@H](Cc1ccccc1)NC(=O)[C@@H](NC(=O)CNC(=O)CN)[C@@H](C)O)[C@@H](C)CC)C(=O)N[C@@H](C)C(=O)N[C@@H](CCSC)C(=O)N[C@@H](CC(=O)O)C(=O)N[C@@H](CCCNC(=N)N)C(=O)N[C@H](C(=O)N[C@@H](CCCCNC(=O)COCCOCCNC(=O)CC[C@H](NC(=O)CCCCCCCCCCCCCCC(=O)O)C(=O)O)C(=O)N[C@@H](CCC(N)=O)C(=O)N[C@@H](CCC(N)=O)C(=O)N[C@@H](CC(=O)O)C(=O)N[C@@H](Cc1ccccc1)C(=O)N[C@H](C(=O)N[C@@H](CC(N)=O)C(=O)N[C@@H](Cc1c[nH]c2ccccc12)C(=O)N[C@@H](CC(C)C)C(=O)N[C@@H](CC(C)C)C(=O)N[C@@H](C)C(=O)N[C@@H](CCC(N)=O)C(=O)N[C@@H](CCCNC(=N)N)C(N)=O)C(C)C)[C@@H](C)CC) [AT508]	0	89	92.6	7	–	23	-7.6	100
PGTFISDYSIAMDRIKQQDFVNWLLAQR (HELM PEPTIDE1{P.G.T.F.I.S.D.Y.S.I.A.M.D.R.I.K.Q.Q.D.F.V.N.W.L.L.A.Q.R.[am]}|PEPTIDE2{[O=C(O)CCCCCCCCCCCCCCC(=O)[*:2]].[gGlu].[O=C(COCCOCCN[*:1])[*:2]]}$PEPTIDE1,PEPTIDE2,16:R3-3:R2$$$V2.0; N-terminus assumed; SMILES CC[C@H](C)[C@H](NC(=O)[C@H](CO)NC(=O)[C@H](Cc1ccc(O)cc1)NC(=O)[C@H](CC(=O)O)NC(=O)[C@H](CO)NC(=O)[C@@H](NC(=O)[C@H](Cc1ccccc1)NC(=O)[C@@H](NC(=O)CNC(=O)[C@@H]1CCCN1)[C@@H](C)O)[C@@H](C)CC)C(=O)N[C@@H](C)C(=O)N[C@@H](CCSC)C(=O)N[C@@H](CC(=O)O)C(=O)N[C@@H](CCCNC(=N)N)C(=O)N[C@H](C(=O)N[C@@H](CCCCNC(=O)COCCOCCNC(=O)CC[C@H](NC(=O)CCCCCCCCCCCCCCC(=O)O)C(=O)O)C(=O)N[C@@H](CCC(N)=O)C(=O)N[C@@H](CCC(N)=O)C(=O)N[C@@H](CC(=O)O)C(=O)N[C@@H](Cc1ccccc1)C(=O)N[C@H](C(=O)N[C@@H](CC(N)=O)C(=O)N[C@@H](Cc1c[nH]c2ccccc12)C(=O)N[C@@H](CC(C)C)C(=O)N[C@@H](CC(C)C)C(=O)N[C@@H](C)C(=O)N[C@@H](CCC(N)=O)C(=O)N[C@@H](CCCNC(=N)N)C(N)=O)C(C)C)[C@@H](C)CC) [AT512]	0	73	79.4	7.1	–	168	-6.8	80
SGTFISDYSIAMDRIKQQDFVNWLLAQR (HELM PEPTIDE1{S.G.T.F.I.S.D.Y.S.I.A.M.D.R.I.K.Q.Q.D.F.V.N.W.L.L.A.Q.R.[am]}|PEPTIDE2{[O=C(O)CCCCCCCCCCCCCCC(=O)[*:2]].[gGlu].[O=C(COCCOCCN[*:1])[*:2]]}$PEPTIDE1,PEPTIDE2,16:R3-3:R2$$$V2.0; N-terminus assumed; SMILES CC[C@H](C)[C@H](NC(=O)[C@H](CO)NC(=O)[C@H](Cc1ccc(O)cc1)NC(=O)[C@H](CC(=O)O)NC(=O)[C@H](CO)NC(=O)[C@@H](NC(=O)[C@H](Cc1ccccc1)NC(=O)[C@@H](NC(=O)CNC(=O)[C@@H](N)CO)[C@@H](C)O)[C@@H](C)CC)C(=O)N[C@@H](C)C(=O)N[C@@H](CCSC)C(=O)N[C@@H](CC(=O)O)C(=O)N[C@@H](CCCNC(=N)N)C(=O)N[C@H](C(=O)N[C@@H](CCCCNC(=O)COCCOCCNC(=O)CC[C@H](NC(=O)CCCCCCCCCCCCCCC(=O)O)C(=O)O)C(=O)N[C@@H](CCC(N)=O)C(=O)N[C@@H](CCC(N)=O)C(=O)N[C@@H](CC(=O)O)C(=O)N[C@@H](Cc1ccccc1)C(=O)N[C@H](C(=O)N[C@@H](CC(N)=O)C(=O)N[C@@H](Cc1c[nH]c2ccccc12)C(=O)N[C@@H](CC(C)C)C(=O)N[C@@H](CC(C)C)C(=O)N[C@@H](C)C(=O)N[C@@H](CCC(N)=O)C(=O)N[C@@H](CCCNC(=N)N)C(N)=O)C(C)C)[C@@H](C)CC) [AT510]	2	87	58.4	7.2	–	30	-7.5	100
PGTFISDYSIAMDRIKQQDFVNWLLAQR (HELM PEPTIDE1{P.G.T.F.I.S.D.Y.S.I.A.M.D.R.I.K.Q.Q.D.F.V.N.W.L.L.A.Q.R.[am]}|PEPTIDE2{[O=C(O)CCCCCCCCCCCCCCC(=O)[*:2]].[gGlu]}$PEPTIDE1,PEPTIDE2,16:R3-2:R2$$$V2.0; N-terminus assumed; SMILES CC[C@H](C)[C@H](NC(=O)[C@H](CO)NC(=O)[C@H](Cc1ccc(O)cc1)NC(=O)[C@H](CC(=O)O)NC(=O)[C@H](CO)NC(=O)[C@@H](NC(=O)[C@H](Cc1ccccc1)NC(=O)[C@@H](NC(=O)CNC(=O)[C@@H]1CCCN1)[C@@H](C)O)[C@@H](C)CC)C(=O)N[C@@H](C)C(=O)N[C@@H](CCSC)C(=O)N[C@@H](CC(=O)O)C(=O)N[C@@H](CCCNC(=N)N)C(=O)N[C@H](C(=O)N[C@@H](CCCCNC(=O)CC[C@H](NC(=O)CCCCCCCCCCCCCCC(=O)O)C(=O)O)C(=O)N[C@@H](CCC(N)=O)C(=O)N[C@@H](CCC(N)=O)C(=O)N[C@@H](CC(=O)O)C(=O)N[C@@H](Cc1ccccc1)C(=O)N[C@H](C(=O)N[C@@H](CC(N)=O)C(=O)N[C@@H](Cc1c[nH]c2ccccc12)C(=O)N[C@@H](CC(C)C)C(=O)N[C@@H](CC(C)C)C(=O)N[C@@H](C)C(=O)N[C@@H](CCC(N)=O)C(=O)N[C@@H](CCCNC(=N)N)C(N)=O)C(C)C)[C@@H](C)CC) [AT506]	5	78	147	6.8	–	91	-7	90
